Experimental data: paper PMC7374887, “Severe syndromic ID and skewed X-inactivation in a child with NAA10 dysfunction and a novel heterozygous de novo NAA10 p.(His16Pro) variant - a case report” (BMC Medical Genetics, 2020)

Target: T1, NAA10 H16P-V5 (human, UniProt P41227-1 1-235, H16P)
T1 sequence (looked up): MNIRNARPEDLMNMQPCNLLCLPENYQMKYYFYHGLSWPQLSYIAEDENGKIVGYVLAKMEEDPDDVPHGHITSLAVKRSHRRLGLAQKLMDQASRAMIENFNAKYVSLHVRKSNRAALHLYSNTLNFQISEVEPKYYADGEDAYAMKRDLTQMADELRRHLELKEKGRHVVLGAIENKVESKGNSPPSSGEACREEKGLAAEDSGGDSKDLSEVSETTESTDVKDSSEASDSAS
Test: cell-based or functional assay

B1: NAA15 (natural protein, human (endogenous in HeLa), UniProt Q9BXJ9 1-866, looked up)
chain: MPAVSLPPKENALFKRILRCYEHKQYRNGLKFCKQILSNPKFAEHGETLAMKGLTLNCLGKKEEAYELVRRGLRNDLKSHVCWHVYGLLQRSDKKYDEAIKCYRNALKWDKDNLQILRDLSLLQIQMRDLEGYRETRYQLLQLRPAQRASWIGYAIAYHLLEDYEMAAKILEEFRKTQQTSPDKVDYEYSELLLYQNQVLREAGLYREALEHLCTYEKQICDKLAVEETKGELLLQLCRLEDAADVYRGLQERNPENWAYYKGLEKALKPANMLERLKIYEEAWTKYPRGLVPRRLPLNFLSGEKFKECLDKFLRMNFSKGCPPVFNTLRSLYKDKEKVAIIEELVVGYETSLKSCRLFNPNDDGKEEPPTTLLWVQYYLAQHYDKIGQPSIALEYINTAIESTPTLIELFLVKAKIYKHAGNIKEAARWMDEAQALDTADRFINSKCAKYMLKANLIKEAEEMCSKFTREGTSAVENLNEMQCMWFQTECAQAYKAMNKFGEALKKCHEIERHFIEITDDQFDFHTYCMRKITLRSYVDLLKLEDVLRQHPFYFKAARIAIEIYLKLHDNPLTDENKEHEADTANMSDKELKKLRNKQRRAQKKAQIEEEKKNAEKEKQQRNQKKKKDDDDEEIGGPKEELIPEKLAKVETPLEEAIKFLTPLKNLVKNKIETHLFAFEIYFRKEKFLLMLQSVKRAFAIDSSHPWLHECMIRLFNTAVCESKDLSDTVRTVLKQEMNRLFGATNPKNFNETFLKRNSDSLPHRLSAAKMVYYLDPSSQKRAIELATTLDESLTNRNLQTCMEVLEALYDGSLGDCKEAAEIYRANCHKLFPYALAFMPPGYEEDMKITVNGDSSAEAEELANEI
In the case of B1, the “Nt-acetylation assay of the V5 immunoprecipitate towards the monomeric NAA10 substrate EEEI24, normalized to NAA10-V5, relative to NAA10 WT-V5” value is reported as 1.5 fold.
